Series [1] has as its target T1, MBD3 (Homo sapiens) (UniProt O95983).
T1 sequence: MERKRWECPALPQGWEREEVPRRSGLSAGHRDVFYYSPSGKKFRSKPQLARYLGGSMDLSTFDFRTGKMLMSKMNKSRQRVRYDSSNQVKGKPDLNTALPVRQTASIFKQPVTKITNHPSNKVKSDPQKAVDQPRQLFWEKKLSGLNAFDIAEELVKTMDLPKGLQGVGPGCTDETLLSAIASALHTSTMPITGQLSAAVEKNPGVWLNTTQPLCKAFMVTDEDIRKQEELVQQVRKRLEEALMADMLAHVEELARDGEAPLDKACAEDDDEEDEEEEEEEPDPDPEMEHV
As to the kind of experiment: competition. The note with it: EMSA with 32P-labeled PCR probes, binding buffer, salt, pH and temperature not in the material.

For series [2], the target named is T1, MBD3 (Homo sapiens). As to the kind of experiment: EMSA. The note with it: EMSA with 32P-labeled PCR probes, binding buffer, salt, pH and temperature not in the material.
Series [3] concerns the target T2, recombinant MKRN3 protein (GST-tagged) (human, UniProt Q13064 1-507).
T2 construct: MKRN3 (Makorin ring finger protein 3), human, E3 ubiquitin ligase; also called Makorin ring finger protein 3; source: recombinant
T2 sequence (looked up): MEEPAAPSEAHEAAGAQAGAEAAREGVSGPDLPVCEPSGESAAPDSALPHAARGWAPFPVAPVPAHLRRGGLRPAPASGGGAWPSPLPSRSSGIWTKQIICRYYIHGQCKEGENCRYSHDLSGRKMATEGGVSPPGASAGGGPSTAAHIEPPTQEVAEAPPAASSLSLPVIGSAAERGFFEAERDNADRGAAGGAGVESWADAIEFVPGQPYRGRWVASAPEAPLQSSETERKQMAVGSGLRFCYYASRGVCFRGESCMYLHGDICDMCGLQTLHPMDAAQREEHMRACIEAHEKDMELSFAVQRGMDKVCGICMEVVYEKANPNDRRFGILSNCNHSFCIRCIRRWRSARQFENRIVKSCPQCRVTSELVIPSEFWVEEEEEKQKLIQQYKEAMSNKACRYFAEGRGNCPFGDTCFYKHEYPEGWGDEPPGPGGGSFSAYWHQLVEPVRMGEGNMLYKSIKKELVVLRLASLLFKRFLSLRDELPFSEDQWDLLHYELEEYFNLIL
The experiment in a line: pull-down; GST pull-down of MKRN3 protein with His6-tagged MBD3, in vitro. The note with it: both partners purified.

“TTCTTCAGCTTTGGGACTCAGACTGGCTTTCCTTGCTCCTCAGCTTGCGGACGGCCTACTGTGGGACCTTGGGATCGTGTGAGTTAATACTTAATAAACTCTCCTATGTGCGTGTGTTTGTGTGTGTGTGTGTGTGTGTATGTATTCTGTCCCTCTAGAGAATGCTGAGTAATACA (double strand) [GNRH1 promoter 5hmC competitor]”: the binding entry in the series with MBD3 (Homo sapiens) [1] (5-hydroxymethylcytosine) is “binds”.

As to “TTCTTCAGCTTTGGGACTCAGACTGGCTTTCCTTGCTCCTCAGCTTGCGGACGGCCTACTGTGGGACCTTGGGATCGTGTGAGTTAATACTTAATAAACTCTCCTATGTGCGTGTGTTTGTGTGTGTGTGTGTGTGTGTATGTATTCTGTCCCTCTAGAGAATGCTGAGTAATACA (double strand) [GNRH1 promoter 5hmC probe]”, the binding entry with MBD3 (Homo sapiens) [2] (all cytosines 5-hydroxymethylcytosine (PCR with 5hm-dCTP; primer-derived cytosines presumably unmodified)) was “binds”.

With “TTCTTCAGCTTTGGGACTCAGACTGGCTTTCCTTGCTCCTCAGCTTGCGGACGGCCTACTGTGGGACCTTGGGATCGTGTGAGTTAATACTTAATAAACTCTCCTATGTGCGTGTGTTTGTGTGTGTGTGTGTGTGTGTATGTATTCTGTCCCTCTAGAGAATGCTGAGTAATACA (double strand) [GNRH1 promoter 5mC probe]”, in the series with MBD3 (Homo sapiens) [2] (5-methylcytosine (PCR with 5m-dCTP; primer-derived cytosines presumably unmodified)), the binding result was “no binding”.

As for “TTCTTCAGCTTTGGGACTCAGACTGGCTTTCCTTGCTCCTCAGCTTGCGGACGGCCTACTGTGGGACCTTGGGATCGTGTGAGTTAATACTTAATAAACTCTCCTATGTGCGTGTGTTTGTGTGTGTGTGTGTGTGTGTATGTATTCTGTCCCTCTAGAGAATGCTGAGTAATACA (double strand) [GNRH1 promoter unmodified C probe]”, the binding result in the series with MBD3 (Homo sapiens) [2] is “binds more weakly”.

For “TTCTTCAGCTTTGGGACTCAGACTGGCTTTCCTTGCTCCTCAGCTTGCGGACGGCCTACTGTGGGACCTTGGGATCGTGTGAGTTAATACTTAATAAACTCTCCTATGTGCGTGTGTTTGTGTGTGTGTGTGTGTGTGTATGTATTCTGTCCCTCTAGAGAATGCTGAGTAATACA (double strand) [GNRH1 promoter unmodified competitor]”, the binding result with MBD3 (Homo sapiens) [1] is “binds more weakly”.

B1: His6-tagged MBD3 (natural protein, human, UniProt O95983 1-291, looked up)
chain: MERKRWECPALPQGWEREEVPRRSGLSAGHRDVFYYSPSGKKFRSKPQLARYLGGSMDLSTFDFRTGKMLMSKMNKSRQRVRYDSSNQVKGKPDLNTALPVRQTASIFKQPVTKITNHPSNKVKSDPQKAVDQPRQLFWEKKLSGLNAFDIAEELVKTMDLPKGLQGVGPGCTDETLLSAIASALHTSTMPITGQLSAAVEKNPGVWLNTTQPLCKAFMVTDEDIRKQEELVQQVRKRLEEALMADMLAHVEELARDGEAPLDKACAEDDDEEDEEEEEEEPDPDPEMEHV
notes: MBD3, human; also called recombinant MBD3; recombinant human MBD3 protein; source: recombinant
With B1, in series [3], the binding result is on record as “binds”.

Values taken from paper PMC8288866, “MKRN3 regulates the epigenetic switch of mammalian puberty via ubiquitination of MBD3” (National Science Review, 2020).
